± gives the standard deviation.

A short description of this data set: protein stability index of a GFP-peptide fusion (GPS, HEK-293T) (PSI 1-6); higher = more stable.
Where [1] appears, read: treatment: DMSO, c terminus: a fixed tail appended.
The mark [2] stands for this setting: treatment: MLN4924 1 uM, 8 h, c terminus: a fixed tail appended.
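Also: 24-mer peptide tiles fused after GFP, lentivirally expressed, FACS-sorted into six equal bins by GFP/DsRed ratio, decoded by Illumina sequencing, PSI is the read-weighted mean bin number.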

For the sequence SCTPRMNRRMVGPDVIPLPHIYGA [FAM189A2], the protein stability index amounted to 2.23 ± 0.22 under setting [1] and 2.27 ± 0.2 under setting [2].

Regarding LGQQQRDMRRDEEGSLCAAHLPKA [FBF1], the protein stability index worked out at 4.97 ± 0.35 under setting [1] and 5.11 ± 0.16 under setting [2].

With MFPLHLAALNAHSDCCRKLLSSGF [ANKRD44], the protein stability index reads like this: under setting [1], 2.57 ± 0.4; under setting [2], 2.15 ± 0.31.

With RGCSRVEGGGTSLHVACELARPEC [ANKRD9], the protein stability index was found to be 3.62 ± 0.3 under setting [1] and 3.69 ± 0.18 under setting [2].

The sequence LTKASLKPRGCSKPPWRPPGGKL [SPACA9] yielded a protein stability index (treatment: DMSO, c terminus: native) of 2.55 ± 0.65 and a protein stability index (treatment: MLN4924 1 uM, 8 h, c terminus: native) of 3.35 ± 1.

For WKYFKGNFYYFSLIPKTWYSAEQF [CD207], the protein stability index was found to be 3.12 ± 0.47 under setting [1] and 2.78 ± 0.71 under setting [2].

The sequence PFSSVTEEELNFEKGETMEVIEKP [NCK2] gave a protein stability index under setting [1] of 5.38 ± 0.22 and a protein stability index under setting [2] of 5.42 ± 0.28.

For the sequence GSPSRPLSRRQLCPLTPGPGKALG [C2CD2L], the protein stability index by setting is: under setting [1], 3.81 ± 0.35; under setting [2], 4.11 ± 0.11.

QEIEDKMKGFSFKEDTLLLIAEVM [C8orf76] had a protein stability index under setting [1] of 2.54 ± 0.68 and a protein stability index under setting [2] of 2.16 ± 0.44.

In the case of ILNSVEKYDPHTGHWTNVTPMATK [KLHL12], the protein stability index runs as follows: under setting [1], 3.15 ± 0.29; under setting [2], 3.43 ± 0.44.

KDGVADSTVISSMPCLLMELRRDS [C18orf25]: the protein stability index is 3.25 ± 0.15 under setting [1] and 3.42 ± 0.35 under setting [2].

PGGAPRVASRNLFPKDTLMNLHVY [CLPTM1]: the protein stability index was determined as 2.33 ± 0.24 under setting [1] and 2.29 ± 0.058 under setting [2].

Consider ADGSLRMDDPKGDFITLYQMASQS [M1AP], for which the protein stability index runs as follows: under setting [1], 3.58 ± 0.083; under setting [2], 3.53 ± 0.15.

Regarding VCEHLNLLEKDYFGLTYRDAENQK [EPB41L3], the protein stability index is 4.91 ± 0.31 under setting [1] and 4.69 ± 0.23 under setting [2].

Turning to YWPLEKDSRIRFGFLTVTNLGVEN [PTPN9], the protein stability index was 2.47 ± 0.36 under setting [1] and 2.43 ± 0.4 under setting [2].

In the case of RNHMENGGDHRYVNNYTNSFGGEW [TRIM29], the protein stability index under setting [1] is 3.13 ± 0.16 and the protein stability index under setting [2] amounted to 3.15 ± 0.2.

For EGPALVEIDRSVENTLLNSQMVST [MIA2], the protein stability index came out at 4.54 ± 0.26 under setting [1] and 4.63 ± 0.22 under setting [2].

In the case of EVDFFQRYFIADLPHLQDSFVDKL [INTS4], the protein stability index was found to be 2.23 ± 0.43 under setting [1] and 2.65 ± 0.25 under setting [2].

As for STQTKKLSASSPRMLHRSTQTTND [ZMYND11], the protein stability index by setting is: under setting [1], 4.71 ± 0.54; under setting [2], 5.15 ± 0.17.

Take RPPFGAAAVPGTQLSPSPTPASQS [SNAP91]: the protein stability index by setting is: under setting [1], 4.79 ± 0.16; under setting [2], 4.86 ± 0.055.

For the sequence NEIESRHRELLRLESRIRDVHELF [STX11], the protein stability index came to 3.54 ± 0.21 under setting [1] and 3.65 ± 0.22 under setting [2].

Turning to YSLLPQSTAPGLFLVSTHTGEVRT [PCDHGC5], the protein stability index was found to be 3.07 ± 0.14 under setting [1] and 3.07 ± 0.29 under setting [2].

As to HGSGGSGYPAAPPAVPFAPHFLQG [TBX6], the protein stability index turned out to be 2.94 ± 0.3 under setting [1] and 3.06 ± 0.31 under setting [2].

Take GASVRGLHPVQKVILNYPSPWDQE [TRAF3IP2]: the protein stability index reads like this: under setting [1], 3.79 ± 0.33; under setting [2], 4.1 ± 0.36.

ERIQELEDLLAKEKDNSRRMLTDK [LMNB1]: the protein stability index is 4.85 ± 0.29 under setting [1] and 4.91 ± 0.34 under setting [2].

Regarding ICEDSFDGRSLSKLNLCEDGPCHK [SCARA5], the protein stability index is 4.55 ± 0.15 under setting [1] and 4.57 ± 0.16 under setting [2].

Take ASKWGMSYDELCFLEQRPQSPTLE [EDARADD]: the protein stability index is, setting by setting: under setting [1], 3.67 ± 0.12; under setting [2], 3.81 ± 0.062.

For the sequence LNDAKRELRFLLVYLHGDDHQDSD [FAF2], the protein stability index under setting [1] came to 2.31 ± 0.36 and the protein stability index under setting [2] turned out to be 2.23 ± 0.25.

Sequence AGTAGHPPSGSQPLTSTQGLEHAA [FBF1] yielded a protein stability index under setting [1] of 4.84 ± 0.11 and a protein stability index under setting [2] of 4.89 ± 0.35.
